The results in this text go back to paper PMC5412564 (The Journal of Cell Biology, 2017).

Data set [1] concerns the target 549-SNAP-VopF (Vibrio cholera (so in the source)). The experiment in a line: photobleaching step counting of single molecules.
Data set [2] concerns the molecule itself. The experiment in a line: photobleaching step counting of single molecules.

As for 549-SNAP-VopF (domain or fragment), the stoichiometry N in data set [1] is 2.

B1: 549-SNAP-VopL (domain or fragment)
chain: LSIKHGSSIPPAPPLPGAIPPAPPLNLSKGAPKSSSNSLDSVNEDHSKLMEQIRQGVKLKSATKSLSADKSSADAHSKLMEELLTGGRKLKKVATSDIPAPPPLPSASTSKSPDSRNALLSEIAGFSKDRLRKTGSLETLNSSQSKDKESFEPTTHERLLSEDLFKQSPKLSEQELDELANNLADYLFQAADIDWHQVISEKTRGLTTEEMAKSEHRYVQAFCREILKYPDCYKSADVASPESPKSGGGSVIDVALKRLQTGRERLFTTTDEKGNRELKKGDAILESAINAARMAISTEEKNTILSNNVKSATFEVFCELPCMDGFAEQNGKTAFYALRAGFYSAFKNTDTAKQDITKFMKDNLQAGFSGYSYQGLTNRVAQLEAQLAALSAKLS
modifications: SNAP-Surface 549 on the SNAP-tag (labeling efficiency ~75%)
As to B1, in data set [2], the “stoichiometry N” value worked out at 2.
